Values quoted from earlier work, collected in article PMC6293969.
pKd: −log10 of the molar value.

Experiments:
SRSF1 (Homo sapiens) = SRSF1 (Homo sapiens) (UniProt Q07955)
CLK1 (Homo sapiens) = CLK1 (Homo sapiens) (UniProt P49759)
Chain of UniProt P49759 (P49759 whole entry): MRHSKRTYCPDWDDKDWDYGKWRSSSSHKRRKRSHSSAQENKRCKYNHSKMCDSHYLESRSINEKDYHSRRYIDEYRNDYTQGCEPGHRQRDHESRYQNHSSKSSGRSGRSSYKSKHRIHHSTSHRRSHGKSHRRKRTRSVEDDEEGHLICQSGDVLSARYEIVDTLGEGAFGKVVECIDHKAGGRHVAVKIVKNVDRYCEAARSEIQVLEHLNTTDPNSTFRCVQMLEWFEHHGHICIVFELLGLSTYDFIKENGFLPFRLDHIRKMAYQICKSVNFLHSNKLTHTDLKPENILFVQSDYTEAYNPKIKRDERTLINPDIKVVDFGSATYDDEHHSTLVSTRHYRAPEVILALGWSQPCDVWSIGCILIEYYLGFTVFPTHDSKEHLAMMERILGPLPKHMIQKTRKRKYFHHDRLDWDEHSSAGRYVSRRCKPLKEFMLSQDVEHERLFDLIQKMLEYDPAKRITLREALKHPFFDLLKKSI

Chain of UniProt Q07955 (Q07955 2-248): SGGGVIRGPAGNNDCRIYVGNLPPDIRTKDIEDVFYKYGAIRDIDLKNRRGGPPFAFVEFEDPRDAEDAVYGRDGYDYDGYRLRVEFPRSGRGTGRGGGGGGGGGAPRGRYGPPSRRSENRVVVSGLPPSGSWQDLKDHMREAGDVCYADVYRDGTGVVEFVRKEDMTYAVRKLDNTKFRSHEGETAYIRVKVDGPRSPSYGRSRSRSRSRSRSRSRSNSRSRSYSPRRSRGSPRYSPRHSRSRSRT

For SRPK1 (from UniProt Q96SB4), the pKd (SRSF1 (Homo sapiens)) is given as 7.00 and the pKd (CLK1 (Homo sapiens)) is given as 7.70.
